Assay results from patent publication US20050058640A1 (BAXTER INTERNATIONAL, published 2005).
Blank lines part the entries; values can stand above or below the molecule they belong to.

Columns and labels:
[1] = target: factor VIII / factor VIIIa (recombinant human coagulation factor VIII, thrombin-activated) (UniProt P00451)
bovine FIX = target: T1, bovine FIX (bovine, UniProt P00741 47-462); test: ELISA and Western blot
T1 construct: also called bovine factor IX

murine FIX = target: T2, murine FIX (murine, UniProt P16294 47-471); test: ELISA and Western blot
T2 construct: also called murine factor IX
T2 sequence (P16294 47-471 limits assumed): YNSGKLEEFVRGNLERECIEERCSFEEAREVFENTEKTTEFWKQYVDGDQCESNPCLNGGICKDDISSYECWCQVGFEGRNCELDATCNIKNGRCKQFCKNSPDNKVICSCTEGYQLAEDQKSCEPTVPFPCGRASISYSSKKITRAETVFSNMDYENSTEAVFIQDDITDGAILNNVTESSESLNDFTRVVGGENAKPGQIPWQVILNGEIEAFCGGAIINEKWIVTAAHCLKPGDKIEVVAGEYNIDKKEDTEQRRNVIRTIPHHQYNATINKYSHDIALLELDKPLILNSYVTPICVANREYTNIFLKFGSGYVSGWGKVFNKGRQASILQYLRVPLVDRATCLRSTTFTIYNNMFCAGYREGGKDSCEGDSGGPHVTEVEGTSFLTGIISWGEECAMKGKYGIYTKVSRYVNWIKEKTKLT

human factor IXa [2] = target: T3, human factor IXa (human, UniProt P00740 47-191; P00740 227-461); test: cell-based or functional assay
T3 sequence (P00740 47-191 limits assumed, chain 1 of 2): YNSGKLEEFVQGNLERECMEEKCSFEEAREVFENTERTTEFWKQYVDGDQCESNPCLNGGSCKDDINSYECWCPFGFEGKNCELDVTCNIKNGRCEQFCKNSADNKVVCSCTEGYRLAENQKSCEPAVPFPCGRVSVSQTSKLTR
T3 sequence (P00740 227-461 limits assumed, chain 2 of 2): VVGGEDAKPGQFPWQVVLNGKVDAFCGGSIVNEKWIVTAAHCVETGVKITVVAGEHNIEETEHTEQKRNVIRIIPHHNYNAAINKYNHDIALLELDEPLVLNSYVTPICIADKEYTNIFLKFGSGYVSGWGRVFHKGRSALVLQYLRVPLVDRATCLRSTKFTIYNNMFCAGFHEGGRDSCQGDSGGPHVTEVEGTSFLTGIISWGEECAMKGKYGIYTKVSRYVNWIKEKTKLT

human factor IXa [3] = target: T3, human factor IXa; test: cell-based or functional assay; remark: listed apart in the source
human factor IXa [4] = target: T3, human factor IXa; test: SPR (BIACORE), antibody captured by anti-mouse Fc on CM5 chip, FIXa in flow, steady state analysis
Description: Polyclonal anti-mouse Fc antibodies were immobilized on a CM5 sensor chip and saturated with the respective monoclonal antibody. As a reference, a non-specific mouse IgG was used.

T1 sequence (P00741 47-462 limits assumed): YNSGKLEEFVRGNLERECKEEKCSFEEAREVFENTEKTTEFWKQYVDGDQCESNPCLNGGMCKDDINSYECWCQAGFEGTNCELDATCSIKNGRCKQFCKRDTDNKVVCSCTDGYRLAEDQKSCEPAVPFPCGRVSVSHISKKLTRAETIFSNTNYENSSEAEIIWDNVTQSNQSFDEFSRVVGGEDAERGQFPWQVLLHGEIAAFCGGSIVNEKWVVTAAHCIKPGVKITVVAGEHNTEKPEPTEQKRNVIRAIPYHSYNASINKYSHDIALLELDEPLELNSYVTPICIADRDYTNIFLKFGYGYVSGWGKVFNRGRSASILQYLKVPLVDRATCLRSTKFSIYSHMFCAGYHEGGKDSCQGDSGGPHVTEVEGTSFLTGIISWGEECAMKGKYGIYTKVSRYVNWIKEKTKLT
factor VIII / factor VIIIa (recombinant human coagulation factor VIII, thrombin-activated), sequence (P00451 20-2351): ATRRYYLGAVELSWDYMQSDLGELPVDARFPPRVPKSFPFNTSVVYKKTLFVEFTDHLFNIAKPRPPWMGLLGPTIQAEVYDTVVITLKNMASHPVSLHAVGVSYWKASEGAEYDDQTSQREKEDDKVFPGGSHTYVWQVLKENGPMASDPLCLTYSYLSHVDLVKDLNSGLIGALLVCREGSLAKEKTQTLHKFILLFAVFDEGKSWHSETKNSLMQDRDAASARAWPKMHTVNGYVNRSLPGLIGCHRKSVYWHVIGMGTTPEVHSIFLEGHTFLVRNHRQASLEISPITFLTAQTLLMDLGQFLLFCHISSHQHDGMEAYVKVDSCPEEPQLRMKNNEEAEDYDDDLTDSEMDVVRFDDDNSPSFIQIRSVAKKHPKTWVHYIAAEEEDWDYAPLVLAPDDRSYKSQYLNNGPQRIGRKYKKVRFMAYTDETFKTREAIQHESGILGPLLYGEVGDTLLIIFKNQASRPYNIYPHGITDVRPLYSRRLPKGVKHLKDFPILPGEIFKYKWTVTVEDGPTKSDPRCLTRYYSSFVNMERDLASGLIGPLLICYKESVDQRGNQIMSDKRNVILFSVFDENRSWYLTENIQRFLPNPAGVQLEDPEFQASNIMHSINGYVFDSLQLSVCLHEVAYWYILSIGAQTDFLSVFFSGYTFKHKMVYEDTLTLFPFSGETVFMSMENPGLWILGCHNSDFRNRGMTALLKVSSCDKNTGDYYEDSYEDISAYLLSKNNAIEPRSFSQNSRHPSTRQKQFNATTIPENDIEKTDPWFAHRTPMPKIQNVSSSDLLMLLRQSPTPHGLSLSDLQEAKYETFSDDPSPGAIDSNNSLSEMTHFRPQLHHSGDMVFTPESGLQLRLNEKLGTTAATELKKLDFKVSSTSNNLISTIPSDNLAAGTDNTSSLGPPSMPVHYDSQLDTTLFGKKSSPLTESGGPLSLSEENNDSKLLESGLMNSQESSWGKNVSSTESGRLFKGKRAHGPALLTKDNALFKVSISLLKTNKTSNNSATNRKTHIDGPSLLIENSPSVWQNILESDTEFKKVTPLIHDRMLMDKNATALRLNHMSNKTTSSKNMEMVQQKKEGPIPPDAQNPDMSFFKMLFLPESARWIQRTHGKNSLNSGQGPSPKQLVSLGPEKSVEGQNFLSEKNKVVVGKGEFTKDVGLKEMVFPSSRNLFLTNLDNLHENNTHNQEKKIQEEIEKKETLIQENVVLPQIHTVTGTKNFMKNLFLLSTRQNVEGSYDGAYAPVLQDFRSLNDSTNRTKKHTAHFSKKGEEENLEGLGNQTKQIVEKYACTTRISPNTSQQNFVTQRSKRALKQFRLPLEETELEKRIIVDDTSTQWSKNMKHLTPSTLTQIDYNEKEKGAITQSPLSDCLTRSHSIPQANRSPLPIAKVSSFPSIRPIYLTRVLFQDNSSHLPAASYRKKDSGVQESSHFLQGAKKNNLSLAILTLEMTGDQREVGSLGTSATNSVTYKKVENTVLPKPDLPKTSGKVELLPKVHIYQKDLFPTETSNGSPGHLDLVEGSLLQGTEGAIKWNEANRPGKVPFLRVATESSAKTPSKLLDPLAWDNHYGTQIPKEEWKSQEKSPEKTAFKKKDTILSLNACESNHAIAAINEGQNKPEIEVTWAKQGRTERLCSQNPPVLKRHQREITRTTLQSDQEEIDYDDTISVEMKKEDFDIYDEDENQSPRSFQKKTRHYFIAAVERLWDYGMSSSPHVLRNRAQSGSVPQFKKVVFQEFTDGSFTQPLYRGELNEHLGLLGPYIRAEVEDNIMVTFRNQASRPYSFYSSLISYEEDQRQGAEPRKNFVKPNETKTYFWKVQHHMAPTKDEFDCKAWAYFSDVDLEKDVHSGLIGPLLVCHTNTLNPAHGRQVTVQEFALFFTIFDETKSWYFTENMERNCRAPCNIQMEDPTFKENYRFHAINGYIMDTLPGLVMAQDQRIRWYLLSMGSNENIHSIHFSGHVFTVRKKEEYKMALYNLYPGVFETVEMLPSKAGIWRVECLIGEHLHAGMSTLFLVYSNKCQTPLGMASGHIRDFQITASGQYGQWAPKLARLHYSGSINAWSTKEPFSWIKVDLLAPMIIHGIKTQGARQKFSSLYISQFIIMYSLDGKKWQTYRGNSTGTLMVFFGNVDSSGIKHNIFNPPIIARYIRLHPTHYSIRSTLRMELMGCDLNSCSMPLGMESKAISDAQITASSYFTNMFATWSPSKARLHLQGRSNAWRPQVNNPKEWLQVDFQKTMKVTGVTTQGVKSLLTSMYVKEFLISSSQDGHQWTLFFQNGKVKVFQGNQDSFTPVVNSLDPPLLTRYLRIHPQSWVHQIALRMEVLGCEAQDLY

Molecule: human factor IXa
- decrease of Km of FIXa [1]: approximately 2.5-fold

- binding result (bovine FIX): binds
- binding result (murine FIX): no binding
- enhancement of the rate of FXa formation (human factor IXa [2]): 10 fold
- increase of kcat of FX activation by FIXa (human factor IXa [2]): ~10 fold
- KM (human factor IXa [3]): 0.048 µM
- kcat (human factor IXa [3]): 0.000883 s⁻¹
- kcat/KM (human factor IXa [3]): 18300 M⁻¹ s⁻¹
- Kd (human factor IXa [4]): 477 pM
B1: antibody 224F3 (antibody, V domains shown)
VH: QVQMQQSGAELVKPGASVKLSCKASGYTFTSQDINWVRQRPEQGLEWIGWIFPGDGSTKYNEKLKGKATLTTDKSSSTAFMQLSRLTSEDSAVYFCARSAYYRYDGSYYYAMDYWGQGTSVTVSS
VL: QIVLTQSPAIMSASLGEEITLTCSASSSVSYMLWYQQKSGTSPKLLIYTTSNLASGVPSRFSGTGSGTFYSLTISSVEAEDAADYYCHQWSSYPRTFGGGTKLEIKR
